Reference: the domain aggregation screens of Martell et al. (2025)

assay: soluble fraction after stress (log2 fold change); higher = more stays soluble; pooled small domains, quantitative proteomics; conditions: stress: 50 degC
Method in brief: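 The measure of aggregation propensity here is the base-two logarithm of the fold change in the soluble amount of each protein after stress. A higher value means more of that protein stays in solution. Stress was applied at 50°C to pooled libraries of small protein domains, read out by high-throughput quantitative proteomics.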

Sequence	soluble fraction (log2)
HMINYSQKQLIAIQDELSKRFQALENESTKNNVTGFGVGLHYIDIDLIVNTPEKQKEFREKIMDSPAFRFN	-0.839
HMQDYISAEEAKSAALSASQVDSAGAAFSAAELGEKNGIPYYEVAFTADGLEYRYAIDAQTGTVIESSSSG	0.0366
HMARAVSPLEAIPGVGPRRRQQLLKQLGGMQEVARAGVEDLSRVPGISRALAQQIYDAFHGD	-0.149
HMRLSDSEFESIENAIKEKLENSALTADVLVKELSFDEDKIWKVIRWLEDAEKISEDEAGTLLWKPR	-0.22
HMDINLSENLVRLRHAKKLTQEQLADFLGVTKASVSKWETRQSLPDILLLPRLAAFYGVTVDELIGYEP	-0.253
HMQQELDAFKLLITVSGVGPKAAMAVLSVLPPDRLSIAVSSGDVKSIQSAQGVGKKTAERIVLELKDKM	-0.814
HMAGLKERLFYFIEYKGLTVQSFEKTVGLSNGAVSKMGDNTRRSTIDKISNFFGDLNKNWLLTGEGEMLI	-0.99
HMRQGHLDLLRQIHALPPSTREVVYLRAFGGLSFREIGDVLGRTETWARVTFYRGKEALRKG	0.0194
HMWTIDPLDWKTENADQIVEKVMSEAKENAIILLHDRYEASVEAALRIVDLLKEQGYTFVTADKLV	-0.257
HMNNLNDIIEIIRIYAKNYARNNPSWNHSELINRIRDKALGEAEDYNIRLSEEDLALITELSLRGL	-0.474
HMSRGTLFVDVRGAVAKPGVYELPEKSRVFQAVEAAGGLLPEALERLVNQAAELTDGQQVYIPFEGEE	0.296
HMFEEPYLATYPVLIDPKLAFNVLDTMLEGLEVKMDQDEETGAISVLAPASIHTKITEYLDALSKQ	-0.159
HMDDHLRLSDNERISAMSALATHFTEGRLDTSEFDERTLAASQAKSRGDLRPLFDDLPGQLPAALSP	0.0376
HMYAGTWISESGQWKYRNDDGSFAKGWFQDLDSRWYYFDANGHMLSDTLTPDGYRLGEDGAWVND	-0.638
HMVGAEDISKPMNLGALMRTAHAFGASFFFTINAHPKVRHAYNSDTSRSFDHMPYYPWDTMEE	0.129
HMQRDELRYDQFLTALQNKEFTQLNVRFDDYTYLVTGTFQSGRPFSTRGPVSEEFIRLIESSGVQVTWLPM	-0.577
HMSEPTVVAINETLTSERLDRYLTTQLPHISRGGIQRLLRKGNILVDGKPAKPTQHPVAGQTVEITWPIPK	-0.359
HMNVAVSEADAKAAALERVSGATEADIRMELELDDGYYVYEGDIIYQQKEYEFEIDAQTGKFLKWSEER	-0.14
HMETTVPNVLNHNISTGEILLKENNLNFRIQYIPSNKDEAVGTIINSVPTSGEKVKFGTVVDLKVL	0.0465
HMDIDGVSENGRLILAALDKEALDFDTLAAETGIQESRLRTELTLLEIRKLIMKLPGQRYRLI	0.0016
HMTGSALDATIEKLLDLGSKAGSVTEDEIQIVLKNVDVTDAQLSSIYQFLRDRGVEIVSATEDDD	0.0977
HMNAKNPRALAIQYVFKMQMGNFLHAKTDNQQQEQERIMTLFNEENKNTILPRWGKELLSYINRN	-0.695
HMNEKEAEEAAEAQTEVPDVTGMAPAQAKNMLYQAGLSSEYRGEGETVSRQLPPAGETVNRGTKAVLYL	0.0278
HMEQLIIQEELSGKRLDQLVSLLFPSLTRAHAQKLIKEGAVLVNEKPRKPAYAVMTGELLTVELPEPE	-0.0616
HMFIEMDEPEKILHRILNEANGKLELDKIGYRAEWPIGKVLTVLMSLELKGVVQSHPGKVYSL	-0.154

Sequence	soluble fraction (log2)
HMGSPVTAVMNRVLNETERQIVTLHVISGFKHREIAELLEKPVGTVLWTYNNALGKMRKAMQRE	-1.33
HMGTYYTEIIAQLKKEIANGTWKLGERLPGELALAKQFNVSRSSIREALKALAYAGIVESKPGRGTFLLHV	-0.875
HMRRRKPLVSYEYGTRVYAPSEGEPRYRVVATDADGQRVFAKFSSEEAARHRAREIEGRLATS	-0.00468
HMSFDGFSDRLKSVLNSGKYTQKEAAEKINISEYSFTKYLNGRIPQTEILYKIARLYNKSMEWLLTGKDPI	-2.01
HMIDELLDPTHRIMVRHPRVDYVSPGFLIGPDKDVILWGFTGGIIARLFDFLGWTRPWDQSHVQDLPPYML	-0.202
HMGGLENNLKQARNRVGLTQSELARQAGISRQAYSSLESGAANPSTEVALRLAQALSERVESLFYLPE	-0.0819
HMNNGAEIGAEIRSLRKARGLTLEDLAAKIGRSVGYISQVERGISPLTIPNLKAIAEVLGVGINWFFRGEA	-0.552
HMTEKSTRSVPQEHEGKRLDVAAALLFPVYSRSELARRIDAGYLLLNGKGSTPKTKVHELDLIELLEV	-0.341
HMNTEEVGSYLKKLRLEHSFTQKELAGKLYITHQAVSNWEKGKALPDIGILSQLGDIYGISIDNLLLK	-1.79
HMVNTVEVQGNTIYSAEEIRSASGIQKGDNLFTLNKEAAAGSIKASLPYVETVSIIRFLPDKIVIEVKE	-0.473
HMLHMKAALGELMSIPGMRSELAGTLFDRGYTSLAQLRAATLDDLERVNGLERADARRIHDFLRKS	-0.0753
HMELEFLTEKQKEALILAVNRGYYDVDSEVTLKRLADELGIARSTYGEHLKRAESEALKMVVSDLLRD	-0.382
HMQIIETTVGRVLFNEKVPEAAGYINEVLTKKSLRDIIHGILKKTSVPETAAFLDEIKSLGYNFAF	-0.066
HMGFPAPFDGKAVAELRRRLGLTRRGLAEELSVSPSTVDKWEQGDVALRSPALTILKILWHQGLKALPP	-1.52
HMPGLQSVTPAELKIGMYVILPLAWDEHPFLKNHFLIQSEAQINKIRELGTKGIQIDLSKSHP	-0.904
HMKNIINLVIDGELHGKRIDAVIAQKNDSLSRTRIKNLVINGNLSINDEIVSDPSKKIYKDDKVSLTIPLP	-0.058
HMLQFTYPRLHTKKSWYVDFMSFDPGAGKMRRKKFMLDGIPKITDRRKRAAELIEVLTKQLRAGWSPWVNV	-3.59
HMTQEMPAEVKKKADAFNNAMDEENYTEAKAILAELEQNTAPSYPLLLQMQTRYAFETASWE	-0.00382
HMEEPFRIEKKGDIYYISGKTVERLVAMTDLDNDSAVKRLQRTLKRMGVEDALREHGINPGDTVVIGNYEF	-0.0245
HMTTPDIIVPDVKGMTVAEAQKALEEKGFKVKLEEMTQEGAVPGDVIRIDPVAGTKRKEGAKITLLIARG	0.161
HMGRTVKGVNFVGLRDAGDPVDLAEIYSKEGADELVFLDITATHEKRKTLLDLVTRVAERINIPFTVGGGI	-0.015
HMDNMFMPPVNGWDVRQALQKLQNEMGLQVKMEYSPSETITEGYVISYTPIDGMKVEKGDEVTLVISTGPE	0.225
HMSELSGSQLKAIREEKHIPLEQVASATRIRLSLLEALEMDEYAELGSRTQARGFLKLYADFLGVPFEA	0.0345
HMQQKNWIVRDGDGKIYGPFTTEQVLVQIDRGYFVGGEEVALYPGGRWIAISGAPEFYDRLLDALAMEG	-0.402
HMNVWGLSERELEATRLLIEGFSSKEASARMGISPSTVRSLWGRARAKMGVDSIEDARELVA	-0.236

Sequence	soluble fraction (log2)
HMSFNTNENKNLLWELMNKHNLFKDIDNQHYQEVQKLFEEEIVFISNNNKSLDLVEQNKKFLSSIITKLNK	-1.41
HMKKEETEAEELEEKFTSAQIKQAYGILNDPRYKQGNYSGAVNVINKIAPGLADHPDVKNALKRANEEL	0.0375
HMSSRSLTYSDFIERVDAGQVDAVTLDGERIVIRAKDGNTYVAIKPQGEDVTGSLTRDLIAKGVDVEAEPQ	0.0928
HMGPNPLTEREQEILQLARTGEPVARLAKRLFLSPGTVRNHLSSAIGKLGAANRVEAAQFATERGW	0.0816
HMSQEHTVPDYKDMEATVVYADLTQKGLNYEIAQETSPTIKEGNVTQTIPGMNEKVVSGDTITVFVSTGTG	0.193
HMISVENLSNREFEIFQLIGNGFSTKEMAKKLNLSIYTVESHKKNIKEKLKLKNSSDLSKYAIQWVIMQN	-0.503
HMANYHDIAADLRSKINHGFYEEEKKLPKQSELAADYQTSRVTIQKALNILQMEGIIYGKKGTGTFIRDSY	-0.214
HMQPADYSDLYAAAKSAGEADMRAAFALTDKQERTAAVNAARETIKAALSEEQLADANLGSALKKLEAGV	-0.337
HMSAITLDQARAIALDHAGISEGDATFVKEQTGTSSYEIEFYSGSNEYDYEIDKATGAILNVDR	0.0269
HMVWMIEKDQSVILVNKLERIQVEALGKALENGNFGDRIRVINNKSGQKLLGIVESEKKIQIISKI	-2.44
HMRSSALDEIPGIGKQRKKNLLVHFTSVAKIKEASLDEIAAVPGMNRKAALVVVEFFQNQERE	-1.79
HMGDTIGEQKAKEIALEHAGLKSSDVTFIRAVLEYDDRNWEYDVEFYDADTYTEYDYEIDAHTGKILSFDH	0.0993
HMSASAIYVRPKDVKEPEEVADYLSGVLELDREKLYKKITDKSQWIALIERKVDNDIAFDIRNKKFKGIEI	-0.0243
HMTHSEYVGRHGIAATSLRPAGAATIDGSRVDVVTSGEYIEKGTPIEVMTVNGSTVRVKAVPQIP	0.0508
HMVEAIDQALIEKQIQAVLQENSAAVKKYQAGKTEVLAFLIGQSMRKIAKKVDANLVKNILLEQLKNK	0.0542
HMDFRVGVWVELVQQRRSVRTQLTWVSPQHTLFLFTAKDGSTQSMTLRMRDKLLAEGNLRIVAPPSR	-2.23
HMGEPQAWNELIGNLLRQWEARQTGWTPARKREALDRVLGAADPAALYTRLQGLLKSWTQAMTDADA	-1.7
HMEKIIGQIQINQRGNGYVIVPNVKDDIFVKRENLNSARQGDRVAVQLLSRPNQKPEGLVQEVLERGQ	0.461
HMPLPFSPVMFVGTKSGAQTDLDGNYKIETYYSSDSLKVVVLGYAPLAKKVKQGTTSVVNFELSAAS	0.113
HMGTVSSGSSSTDTPFSLGEIVRHKVFGEGVVLSIEGQGDASRIQINFNTAGTKWLVTAYADLEK	-0.219
HMNGVFIMHTPDGKVLRTEEGEEAVITLFNWSGQLLWSKTSLGQLPLPEGTQGVLQVQYKSGDQHTIKT	-0.267
HMTMEFGEFLAKLRKERGYYQKEVAAYLNVTVATISNYEKNVHAPDLDTLVKLADFYDVSTDYLLQRT	-2.98
HMSDAPLLSIRSLAVAFDGTRVVDGVSFDVARGEVVALVGESGSGKTVTGLSLLDLVPPPGRRVGGEV	0.0423
HMPTEAIVLQQIQIRQSPSGNSKSLQQILPGAKIKITSESSVKGWKQVSLDGGQKGWIPTAAIGL	-0.0262
HMEELTDSELNNLYRELFIARSNASDGVGIIEQKTIKGITYRLSNDNNYLIKELGNKEYIYKNGVWEEYT	0.0711
